No end group written: not given here.

The target of one assay is HBV virions (Genotype D) (Hepatitis B virus genotype D). Nature of the assay: cell-based or functional assay.
The target in the next assay is T1, HBsAg genotype A (adw2) (Hepatitis B virus genotype A (adw2), UniProt P03141 175-400).
T1 construct: the form coated in the ELISA is not described
Nature of the assay: ELISA on HBsAg of four genotypes.

A further assay deals with T2, HBsAg genotype C (adr) (Hepatitis B virus genotype C (adr), UniProt P30019 1-226).
T2 construct: the form coated in the ELISA is not described
Description: ELISA on HBsAg of four genotypes.

In another assay the target is T3, HBsAg genotype B (adw) (Hepatitis B virus genotype B (adw), UniProt Q9PWW3 175-400).
T3 construct: the form coated in the ELISA is not described
Description: ELISA on HBsAg of four genotypes.

The target in assay [1] is T4, HBsAg loop 2 linear peptide (Hepatitis B virus, not fully specified; cysteine pairing not given here).
T4 construct: The peptide is printed with alternative residues at one position
T4 peptide: CTKPTDGNCT
Description: direct ELISA on coated linear peptide (50 ng/well).

The target of assay [2] is T5, HBsAg loop 1 linear peptide (Hepatitis B virus, not fully specified; cysteine pairing not given here).
T5 construct: The peptide is printed with alternative residues at two positions
T5 peptide: TCTTPAQGNSMFPSC
Description: direct ELISA on coated linear peptide (50 ng/well).

The next assay deals with T6, recombinant small-HBsAg (Hepatitis B virus).
T6 construct: also called recombinant HBsAg; rHBsAg
Description: QCM (Attana Cell A200), rHBsAg amine-coupled on chip, 25 C.

B1: mAb006-11-IgG4 (antibody, V domains shown)
VH: QLQLQESGPGLVKPSETLSLTCTVSGGSMNINDYYWDWVRLSPGKGLEWIGAIYSSGTTYYNPSLKSRVTISVDMSKDQFSLRLSSVTAADTAVYYCVRDGPHRLYYGSGTYYNPRGGYYSYALDVWGQGTTVIV
VL: QLVLTQSPSASASLGASVKLTCTLSSGHGTYAIAWHQLRSEKGPRYLMKVNSDGSHIKGDGIPDRFSGSSSGAERYLIISSLQSEDEADYYCQTWGTGIVIFGGGTKLTVL
Turning to B1, the “EC50, in-vitro neutralization (HBeAg data)” value (from here on “EC50, in-vitro neutralization”) with HBV virions (Genotype D) worked out at 0.242 nM.

B2: mAb006-11-IgG3 (antibody, V domains shown)
VH: QLQLQESGPGLVKPSETLSLTCTVSGGSMNINDYYWDWVRLSPGKGLEWIGAIYSSGTTYYNPSLKSRVTISVDMSKDQFSLRLSSVTAADTAVYYCVRDGPHRLYYGSGTYYNPRGGYYSYALDVWGQGTTVIV
VL: QLVLTQSPSASASLGASVKLTCTLSSGHGTYAIAWHQLRSEKGPRYLMKVNSDGSHIKGDGIPDRFSGSSSGAERYLIISSLQSEDEADYYCQTWGTGIVIFGGGTKLTVL
B2: the “EC50, in-vitro neutralization” value with HBV virions (Genotype D) amounted to 1.05 nM.

B3: mAb006-11-IgG2 (antibody, V domains shown)
VH: QLQLQESGPGLVKPSETLSLTCTVSGGSMNINDYYWDWVRLSPGKGLEWIGAIYSSGTTYYNPSLKSRVTISVDMSKDQFSLRLSSVTAADTAVYYCVRDGPHRLYYGSGTYYNPRGGYYSYALDVWGQGTTVIV
VL: QLVLTQSPSASASLGASVKLTCTLSSGHGTYAIAWHQLRSEKGPRYLMKVNSDGSHIKGDGIPDRFSGSSSGAERYLIISSLQSEDEADYYCQTWGTGIVIFGGGTKLTVL
On to B3, for which the “EC50, in-vitro neutralization” value with HBV virions (Genotype D) came to 1.32 nM.

B4: mAb006-11-IgG1 (antibody, V domains shown)
VH: QLQLQESGPGLVKPSETLSLTCTVSGGSMNINDYYWDWVRLSPGKGLEWIGAIYSSGTTYYNPSLKSRVTISVDMSKDQFSLRLSSVTAADTAVYYCVRDGPHRLYYGSGTYYNPRGGYYSYALDVWGQGTTVIV
VL: QLVLTQSPSASASLGASVKLTCTLSSGHGTYAIAWHQLRSEKGPRYLMKVNSDGSHIKGDGIPDRFSGSSSGAERYLIISSLQSEDEADYYCQTWGTGIVIFGGGTKLTVL
notes: also called mAb11; mAb006-11G1
On to B4, for which the binding result in the assay with HBsAg genotype A (adw2) is “binds”; in the assay with HBsAg genotype C (adr) it was “binds”; in the assay with HBsAg genotype B (adw) it was “binds”; in assay [1], “no binding”; in assay [2], “no binding”. Also, the Kd with recombinant small-HBsAg came out at 22.7 nM. For the same molecule, the “EC50, in-vitro neutralization” value with HBV virions (Genotype D) was found to be 12.6 nM.

Source of the values: patent US20240327500A1 (NATIONAL UNIVERSITY OF SINGAPORE, published 2024).
